Earlier results, collected in article PMC6628902.

Biological target: CXCL12 (Homo sapiens) (UniProt P48061)
Sequence (P48061 22-89): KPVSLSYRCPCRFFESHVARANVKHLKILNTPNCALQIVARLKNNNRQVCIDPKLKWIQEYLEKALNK

CXCR4, sequence (P61073 whole entry): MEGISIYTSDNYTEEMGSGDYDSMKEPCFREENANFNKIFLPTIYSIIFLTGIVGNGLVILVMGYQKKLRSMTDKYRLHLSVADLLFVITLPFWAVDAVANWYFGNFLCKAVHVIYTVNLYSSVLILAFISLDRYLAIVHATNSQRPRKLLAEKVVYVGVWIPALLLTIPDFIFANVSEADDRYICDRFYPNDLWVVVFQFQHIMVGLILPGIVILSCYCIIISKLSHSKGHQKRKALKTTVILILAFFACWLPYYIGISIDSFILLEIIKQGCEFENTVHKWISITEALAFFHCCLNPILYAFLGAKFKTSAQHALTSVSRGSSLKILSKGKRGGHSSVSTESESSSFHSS

**Q.** Which Kd does the source give for CXCR4 (from UniProt P61073) here?
**A.** 4.5 nM
